B1: EGFR-CD3 DuetMab with the parental anti-CD3 arm (bispecific antibody, part only; not given: anti-EGFR arm, constant regions, V domains shown, not shown: another chain or arm of the molecule; a dimerising Fc or GST; small tags and cut ends)
VH: QVQLVESGGGVVQPGRSLRLSCAASGFTFTKAWMHWVRQAPGKQLEWVAQIKDKSNSYATYYADSVKGRFTISRDDSKNTLYLQMNSLRAEDTAVYYCRGVYYALSPFDYWGQGTLVTVSS
VL: DIVMTQTPLSLSVTPGQPASISCKSSQSLVHNNANTYLSWYLQKPGQSPQSLIYKVSNRFSGVPDRFSGSGSGTDFTLKISRVEAEDVGVYYCGQGTQYPFTFGSGTKVEIK
B2: EGFR-CD3 DuetMab with anti-CD3 variant AZ Vκ 26 + AZ VH SN75 (bispecific antibody, part only; not given: anti-EGFR arm, constant regions, V domains shown, not shown: another chain or arm of the molecule; a dimerising Fc or GST; small tags and cut ends)
VH: EVQLVESGGALVKPGGSLRLSCAASGFTFSNAWMHWVRQAPGKQLEWVAQIKDRSQTYATYYAESVKGRFTISRDDSKNTLYLQMNSLKTEDTAVYYCRGVYYANAPFDYWGQGTLVTVSS
VL: B1 VL with T7S, S12P, Q17E, K24R, N33T, A34G, F60A, Y99A, T102S
B3: EGFR-CD3 DuetMab with anti-CD3 variant AZ Vκ 29 + AZ VH R75 (bispecific antibody, part only; not given: anti-EGFR arm, constant regions, V domains shown, not shown: another chain or arm of the molecule; a dimerising Fc or GST; small tags and cut ends)
VH: B2 VH with S30T, N31R
VL: B1 VL with T7S, S12P, Q17E, K24R, N33T, A34G, F60A, Y99F
B4: EGFR-CD3 DuetMab with anti-CD3 variant AZ Vκ 26 + AZ VH E82 (bispecific antibody, part only; not given: anti-EGFR arm, constant regions, V domains shown, not shown: another chain or arm of the molecule; a dimerising Fc or GST; small tags and cut ends)
VH: B2 VH with S30T, N31E, A106T
VL: B1 VL with T7S, S12P, Q17E, K24R, N33T, A34G, F60A, Y99A, T102S
B5: EGFR-CD3 DuetMab with anti-CD3 variant AZ Vκ 26 + AZ VH E75 (bispecific antibody, part only; not given: anti-EGFR arm, constant regions, V domains shown, not shown: another chain or arm of the molecule; a dimerising Fc or GST; small tags and cut ends)
VH: B2 VH with S30T, N31E
VL: B1 VL with T7S, S12P, Q17E, K24R, N33T, A34G, F60A, Y99A, T102S
B6: EGFR-CD3 DuetMab with anti-CD3 variant AZ Vκ 29 + AZ VH R79 (bispecific antibody, part only; not given: anti-EGFR arm, constant regions, V domains shown, not shown: another chain or arm of the molecule; a dimerising Fc or GST; small tags and cut ends)
VH: B2 VH with S30T, N31R, N105V, A106T
VL: B1 VL with T7S, S12P, Q17E, K24R, N33T, A34G, F60A, Y99F
B7: EGFR-CD3 DuetMab with anti-CD3 variant AZ Vκ 29 + AZ VH R82 (bispecific antibody, part only; not given: anti-EGFR arm, constant regions, V domains shown, not shown: another chain or arm of the molecule; a dimerising Fc or GST; small tags and cut ends)
VH: B2 VH with S30T, N31R, A106T
VL: B1 VL with T7S, S12P, Q17E, K24R, N33T, A34G, F60A, Y99F
B8: EGFR-CD3 DuetMab with anti-CD3 variant AZ Vκ 26 + AZ VH SN79 (bispecific antibody, part only; not given: anti-EGFR arm, constant regions, V domains shown, not shown: another chain or arm of the molecule; a dimerising Fc or GST; small tags and cut ends)
VH: B2 VH with N105V, A106T
VL: B1 VL with T7S, S12P, Q17E, K24R, N33T, A34G, F60A, Y99A, T102S
B9: EGFR-CD3 DuetMab with anti-CD3 variant AZ Vκ 26 + AZ VH E79 (bispecific antibody, part only; not given: anti-EGFR arm, constant regions, V domains shown, not shown: another chain or arm of the molecule; a dimerising Fc or GST; small tags and cut ends)
VH: B2 VH with S30T, N31E, N105V, A106T
VL: B1 VL with T7S, S12P, Q17E, K24R, N33T, A34G, F60A, Y99A, T102S
B10: EGFR-CD3 DuetMab with anti-CD3 variant AZ Vκ 26 + AZ VH SN82 (bispecific antibody, part only; not given: anti-EGFR arm, constant regions, V domains shown, not shown: another chain or arm of the molecule; a dimerising Fc or GST; small tags and cut ends)
VH: B2 VH with A106T
VL: B1 VL with T7S, S12P, Q17E, K24R, N33T, A34G, F60A, Y99A, T102S
B11: AZ Vκ+AZ VH IgG1-TM (antibody, V domains shown)
VH: B1 VH
VL: B1 VL
notes: also called parental AZ Vκ+AZ VH IgG1-TM; parental anti-CD3 antibody
B12: AZ Vκ 7 + AZ VH 13 (antibody, IgG1, V domains shown)
VH: B2 VH with S30T, N31K, W33Y, T57S, N105L, A106S
VL: B1 VL with T7S, S12P, Q17E, K24R, N33T, A34G, F60A
notes: member of the group m34
B13: AZ Vκ 7 + AZ VH 21 (antibody, IgG1, V domains shown)
VH: B2 VH with W33Y, T57S, N105L, A106S
VL: B1 VL with T7S, S12P, Q17E, K24R, N33T, A34G, F60A
notes: member of the group m34

Residue numbers refer to the chain shown, from its start.

As a reminder, the Kd is a measure of binding affinity in units of concentration. The term koff denotes the rate constant with which the complex falls apart. Usually kon stands for the second-order rate constant of association. What is called EC50 (read off the curve) is the concentration needed to bring the measured effect to its halfway point.

Chain of Biotinylated recombinant human CD3εδ (Acro Biosystems, CDD-H82W6) (human) (P07766 23-126, stated change not applied, chain 1 of 2): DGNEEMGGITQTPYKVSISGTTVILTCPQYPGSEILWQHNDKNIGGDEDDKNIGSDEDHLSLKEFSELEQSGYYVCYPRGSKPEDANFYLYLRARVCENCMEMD
Chain of Biotinylated recombinant human CD3εδ (Acro Biosystems, CDD-H82W6) (human) (P04234 22-105, stated change not applied, chain 2 of 2, further chain): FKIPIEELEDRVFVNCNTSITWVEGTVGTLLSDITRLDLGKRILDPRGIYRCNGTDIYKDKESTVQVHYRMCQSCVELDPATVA

One test addresses Biotinylated recombinant human CD3εδ (Acro Biosystems, CDD-H82W6) (human) (UniProt P07766). In words: Octet BLI, biotinylated CD3εδ on streptavidin sensors, 1:1 model. In general terms: BLI is a label-free optical method that tracks binding on a fibre tip over time.
B1: the Kd stood at 24.3 nM, the koff turned out to be 0.00105 s⁻¹ and the kon worked out at 43300 M⁻¹ s⁻¹.

With B2, the equilibrium dissociation constant (Kd) came out at 949 nM, the koff was found to be 0.0155 s⁻¹ and the kon worked out at 16300 M⁻¹ s⁻¹.

Take B3: the Kd turned out to be 224 nM, the koff stood at 0.0119 s⁻¹ and the kon was 53300 M⁻¹ s⁻¹.

Turning to B4, the Kd turned out to be 3920 nM, the koff was found to be 0.0287 s⁻¹ and the kon was 7330 M⁻¹ s⁻¹.

Regarding B5, the Kd came out at 2280 nM, the koff came out at 0.0172 s⁻¹ and the kon was determined as 7540 M⁻¹ s⁻¹.

For the molecule B6, the Kd is 878 nM, the koff is 0.0487 s⁻¹ and the kon is 55500 M⁻¹ s⁻¹.

With B7, the Kd was 595 nM, the koff stood at 0.0231 s⁻¹ and the kon came out at 38800 M⁻¹ s⁻¹.

For the molecule B8, the Kd was found to be 1930 nM, the koff was 0.0361 s⁻¹ and the kon was 18700 M⁻¹ s⁻¹.

As for B9, the Kd was determined as 4660 nM, the koff is 0.0511 s⁻¹ and the kon was determined as 11000 M⁻¹ s⁻¹.

B10: the Kd is 1710 nM, the koff was 0.0212 s⁻¹ and the kon stood at 12400 M⁻¹ s⁻¹.

The target in another test is T1, Cynomolgus monkey CD3 on HSC-F cells (cynomolgus monkey, UniProt Q95LI5 22-198; Q95LI8 22-171; Q95LI7 23-181).
T1 construct: whole, on cells; CD3 complex; also called cyCD3+; cynomolgus CD3+ cells
T1 sequence (Q95LI5 22-198, chain 1 of 3): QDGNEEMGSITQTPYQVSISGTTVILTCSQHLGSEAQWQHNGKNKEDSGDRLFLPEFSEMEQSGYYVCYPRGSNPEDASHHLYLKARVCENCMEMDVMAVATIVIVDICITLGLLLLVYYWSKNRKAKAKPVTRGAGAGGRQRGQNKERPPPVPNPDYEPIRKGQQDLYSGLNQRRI
T1 sequence (Q95LI8 22-171, chain 2 of 3): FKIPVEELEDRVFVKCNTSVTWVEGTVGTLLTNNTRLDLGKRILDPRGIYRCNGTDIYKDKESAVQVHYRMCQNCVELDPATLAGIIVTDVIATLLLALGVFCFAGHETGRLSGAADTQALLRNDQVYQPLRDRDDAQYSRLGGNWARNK
T1 sequence (Q95LI7 23-181, chain 3 of 3): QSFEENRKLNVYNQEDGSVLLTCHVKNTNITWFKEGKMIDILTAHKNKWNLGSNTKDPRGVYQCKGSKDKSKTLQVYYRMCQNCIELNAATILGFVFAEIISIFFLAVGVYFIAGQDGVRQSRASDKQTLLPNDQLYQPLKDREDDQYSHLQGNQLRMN
Put plainly: flow cytometry on HSC-F cells (cyCD3+), detection with Alexa Fluor 647 goat F(ab')2 anti-human IgG Fcγ. Here is the method: (§1) Flow Cytometry was used to determine specific cell surface antigen binding. The human leukemia T cell lines HPB-ALL, Jurkat, Jurkat TCR KO, and cynomolgus T cell line HSC-F were used to assess human CD3 and cynomolgus CD3 binding, respectively. Briefly, 1×10⁵ cells were suspended in FACS buffer (1×PBS, pH 7.2 supplemented with 2% heat-inactivated FBS, 0.1% sodium azide and 2 mM EDTA) and placed into each well of a round-bottom 96-well plate. Antibodies were diluted to various concentrations using FACS buffer and added to the cells. Antibodies and cells were washed twice with FACS buffer after incubation at 4° C. for 30 min. Cell surface antigen binding of antibodies was detected with Alexa Fluor 647-conjugated goat F(ab′)₂ fragment specifically against human IgG Fcγ fragment. Data was collected using a BD FACSymphony A3 Cell Analyzer (BD Biosciences). Data was analyzed with FlowJo v10.6.1 and plotted using GraphPad Prism v9.0.0.
In the case of B11, the “EC50 (read off the curve)” value is approximately 40 nM.

In a further test the target is T2, Human CD3 on HPB-ALL and Jurkat cells (human, UniProt P07766 23-207; P04234 22-171; P09693 23-182).
T2 construct: whole, on cells; also called hCD3+; human CD3+ cells
T2 sequence (P07766 23-207, chain 1 of 3): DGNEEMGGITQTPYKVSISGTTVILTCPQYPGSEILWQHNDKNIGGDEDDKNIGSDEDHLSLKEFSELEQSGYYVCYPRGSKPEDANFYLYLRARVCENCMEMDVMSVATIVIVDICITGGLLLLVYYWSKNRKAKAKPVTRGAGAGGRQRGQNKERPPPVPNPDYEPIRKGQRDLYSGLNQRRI
T2 sequence (P04234 22-171, chain 2 of 3): as the sequence (Q95LI8 22-171, chain 2 of 3) above, with V5I, K15N, V20I, T32S, N33D, N34I, A64T, N74S, L83V, R141H counted along it
T2 sequence (P09693 23-182, chain 3 of 3): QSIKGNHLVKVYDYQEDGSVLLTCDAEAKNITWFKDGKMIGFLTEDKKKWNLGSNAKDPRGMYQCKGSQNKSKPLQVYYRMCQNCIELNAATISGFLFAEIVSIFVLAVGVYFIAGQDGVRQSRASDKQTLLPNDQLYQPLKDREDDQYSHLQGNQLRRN
In words: flow cytometry on HPB-ALL cells (hCD3+), detection with Alexa Fluor 647 goat F(ab')2 anti-human IgG Fcγ. Here is the method: as §1
A general note: Flow cytometry measures light scatter and fluorescence of single cells or particles in a stream.
B12: the binding result was “binds”.

As to B13, the binding result is “binds”.

Another test has as its target T1, Cynomolgus monkey CD3 on HSC-F cells. Put plainly: flow cytometry on HSC-F cells (cyCD3++), detection with Alexa Fluor 647 goat F(ab')2 anti-human IgG Fcγ. Here is the method:
as §1
B11: the “EC50 (read off the curve)” value was approximately 40 nM.

For the molecule B12, the binding result is listed as “binds”.

For B13, the binding result is recorded as “binds”.

The target of another test is T2, Human CD3 on HPB-ALL and Jurkat cells. Put plainly: flow cytometry on HPB-ALL cells (hCD3++), EGFR-CD3 DuetMab, detection with Alexa Fluor 647 goat F(ab')2 anti-human IgG Fcγ.
Regarding B1, the EC50 (read off the curve) worked out at 50 nM.

For the origin of these results see US20250019438A1 (AstraZeneca / MedImmune, published 2025).
